Blank lines part the entries; values can stand above or below the binder they belong to.
Molecular target: T1, human CD99ecd/GST (human, UniProt P14209 23-122)
T1 construct: Expressed in E. coli BL21(DE3), purified on Glutathione Sepharose; also called CD99ecd/GST antigen; recombinant CD99; not shown: glutathione-S-transferase as encoded by vector pGEX-2T (GE Healthcare); CD99ecd fused downstream of it through the BamHI
T1 sequence: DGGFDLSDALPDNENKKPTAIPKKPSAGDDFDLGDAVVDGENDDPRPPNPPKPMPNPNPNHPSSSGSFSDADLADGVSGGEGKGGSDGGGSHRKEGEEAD
Assay: competitive ELISA (Rath 1988), CD99ecd/GST coated and soluble CD99ecd/GST as inhibitor
Protocol: The binding affinity, expressed as the dissociation constant (kd) of scFv C7, C7dAbd, C7IgG4 and C7IgG1 for CD99, was determined by analysing the saturation of binding at equilibrium with a competitive ELISA assay according to the procedure described in Rath S 1988 with small variations. […] For this purpose, 96-well plates were sensitized by distributing 500 ng/well of CD99ecd/GST diluted in 0.5M carbonate buffer, pH 9.6, and incubating ON at 4° C. After 3 washes with PBS supplemented with 0.05% V/V of Tween20, the plates were blocked with a 1% W/V solution of BSA in PBS (PBSB), pH 7.4, for 60 min. at 37° C. After washing, the plates were incubated for 1 hour at 37° C. with serial dilutions of C7 (from 200 μg/ml to 0.03 μg/ml in triplicate) diluted in PBSB and dispensed (100 μl/well). The plates were incubated at 37° C. for 90 minutes. After washing a dilution of polyclonal anti-scFv diluted 1:500 in PBSB was dispensed, 100 μl/well, and incubated for 60 minutes at 37° C. […]
A competitive ELISA assay was then set up. […] The scFvC7 and C7 diabody signal was determined by dispensing, in a first step, a polyclonal anti-scFv antibody generated in rabbits immunized with scFvC7 and diluted 1:500 v/v in PBSB and subsequently with an anti-rabbit HRP diluted 1:1000 v/v. […]

Kd: 0.00586 µM
B1: C7IgG4 (antibody)
heavy: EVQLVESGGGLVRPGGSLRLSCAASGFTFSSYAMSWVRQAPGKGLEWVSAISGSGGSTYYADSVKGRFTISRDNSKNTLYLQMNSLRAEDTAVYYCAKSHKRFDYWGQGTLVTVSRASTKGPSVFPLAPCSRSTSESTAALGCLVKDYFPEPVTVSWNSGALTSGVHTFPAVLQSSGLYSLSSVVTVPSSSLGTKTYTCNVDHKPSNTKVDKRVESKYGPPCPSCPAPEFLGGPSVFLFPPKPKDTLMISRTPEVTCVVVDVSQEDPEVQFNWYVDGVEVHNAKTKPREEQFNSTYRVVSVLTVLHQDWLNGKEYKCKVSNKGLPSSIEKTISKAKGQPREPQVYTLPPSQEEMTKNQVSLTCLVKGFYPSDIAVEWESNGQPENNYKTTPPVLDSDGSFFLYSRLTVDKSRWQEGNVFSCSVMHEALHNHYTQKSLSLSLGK
light: SSELTQDPAVSVALGQTVRITCQGDSLRSYYASWYQQKPGQAPVLVIYGKNNRPSGIPDRFSGSSSGNTASLTITGAQAEDEADYYCNSSFPRTSSVVFGGGTKLTVLGQPKANPTVTLFPPSSEELQANKATLVCLISDFYPGAVTVAWKADGSPVKAGVETTKPSKQSNNKYAASSYLSLTPEQWKSHRSYSCQVTHEGSTVEKTVAPTECS
notes: VH and VL of scFvC7 fused to human IgG4 constant regions; produced in Expi293F cells; also called IgG4wt; C7IgG4 wt

Kd: 9 µM
B2: C7IgG1 (antibody)
heavy: not shown
light: B1 light
notes: VH and VL of scFvC7 fused to human IgG1 constant regions; produced in Expi293F cells

Reference: patent US20210230292A1 (DIATHEVA S R L, published 2021)
